Patent publication US20240083958A1, “G PROTEIN PEPTIDOMIMETICS” (VRIJE UNIVERSITEIT BRUSSEL, priority 2020, published 2024)
Like-named read-outs stand apart in the source and are kept apart here. Bridge positions count the residues as written; N and C are the ends. Square brackets hold non-standard residues; d marks the D form. Primed or numbered codes have the meaning given here. Azk = residue with azidated side chain, clicked to Pra; Pra′ = residue with alkynyl side chain, clicked to Azk; S5 = C=CCCC[C@](C)(N)C(=O)O

Tests used:
Assay in all cases: cell-based or functional assay
[1] = biological target: T1, human β2AR (human, UniProt P07550 2-365)
[2] = biological target: T1, human β2AR; remark: listed apart in the source
[3] = biological target: T1, human β2AR; remark: listed apart in the source
[4] = biological target: T1, human β2AR; remark: listed apart in the source
[5] = biological target: T1, human β2AR; remark: listed apart in the source
[6] = biological target: T1, human β2AR; remark: listed apart in the source
[7] = biological target: T1, human β2AR; remark: listed apart in the source
[8] = biological target: T1, human β2AR; remark: listed apart in the source
[9] = biological target: T1, human β2AR; remark: listed apart in the source

Binder: Ac-RRIFNDCRDIIQRMHLRQYELL-OH [compound 73]
- IC50 (nM) of isoproterenol, [3H]-DHA RLA, peptidomimetic present [1]: 52.6 nM
- Shift [1]: 19
- Shift (averaged) [2]: 19

Binder: Ac-FNDCRDEIQRKHLRQYELL-OH [compound 3]
- IC50 (nM) of isoproterenol, [3H]-DHA RLA, peptidomimetic present [3]: 408 nM
- Shift [3]: 2
- Shift (averaged) [4]: 2

B1: compound 66 (peptide)
peptide: QRMHLRQYEXL
HELM: PEPTIDE1{[ac].Q.R.M.H.L.R.Q.Y.E.[Cha].L}$$$$V2.0
SMILES: CSCC[C@H](NC(=O)[C@H](CCCNC(=N)N)NC(=O)[C@H](CCC(N)=O)NC(C)=O)C(=O)N[C@@H](Cc1c[nH]cn1)C(=O)N[C@@H](CC(C)C)C(=O)N[C@@H](CCCNC(=N)N)C(=O)N[C@@H](CCC(N)=O)C(=O)N[C@@H](Cc1ccc(O)cc1)C(=O)N[C@@H](CCC(=O)O)C(=O)N[C@@H](CC1CCCCC1)C(=O)N[C@@H](CC(C)C)C(=O)O
- Shift (averaged) [2]: 2
- IC50 (nM) of isoproterenol, [3H]-DHA RLA, peptidomimetic present [5]: 551 nM
- Shift [5]: 1

B2: compound 24 (peptide)
peptide: FNECRDKIQRMHLRQYELL
HELM: PEPTIDE1{[ac].F.N.E.C.R.D.K.I.Q.R.M.H.L.R.Q.Y.E.L.L}$PEPTIDE1,PEPTIDE1,4:R3-8:R3$$$V2.0
SMILES: CC[C@H](C)[C@H](NC(=O)[C@@H]1CCCCNC(=O)CC[C@H](NC(=O)[C@H](CC(N)=O)NC(=O)[C@H](Cc2ccccc2)NC(C)=O)C(=O)N[C@@H](CS)C(=O)N[C@@H](CCCNC(=N)N)C(=O)N[C@@H](CC(=O)O)C(=O)N1)C(=O)N[C@@H](CCC(N)=O)C(=O)N[C@@H](CCCNC(=N)N)C(=O)N[C@@H](CCSC)C(=O)N[C@@H](Cc1c[nH]cn1)C(=O)N[C@@H](CC(C)C)C(=O)N[C@@H](CCCNC(=N)N)C(=O)N[C@@H](CCC(N)=O)C(=O)N[C@@H](Cc1ccc(O)cc1)C(=O)N[C@@H](CCC(=O)O)C(=O)N[C@@H](CC(C)C)C(=O)N[C@@H](CC(C)C)C(=O)O
- IC50 (nM) of isoproterenol, [3H]-DHA RLA, peptidomimetic present [6]: 97.3 nM
- Shift [6]: 7
- Shift (averaged) [4]: 7

Binder: Ac-FNDCRD[S5]IQR[S5]HLRQYELL-OH (bridges not given here) [compound 6]
- IC50 (nM) of isoproterenol, [3H]-DHA RLA, peptidomimetic present [7]: 104 nM
- Shift [7]: 8
- Shift (averaged) [4]: 9

B3: compound 9 (peptide)
peptide: FNDCRDXIQRXHLRQYELL
HELM: PEPTIDE1{[ac].F.N.D.C.R.D.[C#CC[C@H](N[*:1])C(=O)[*:2]].I.Q.R.[[N-]=[N+]=NCCCC[C@H](N[*:1])C(=O)[*:2]].H.L.R.Q.Y.E.L.L}$$$$V2.0
SMILES: C#CC[C@H](NC(=O)[C@H](CC(=O)O)NC(=O)[C@H](CCCNC(=N)N)NC(=O)[C@H](CS)NC(=O)[C@H](CC(=O)O)NC(=O)[C@H](CC(N)=O)NC(=O)[C@H](Cc1ccccc1)NC(C)=O)C(=O)N[C@H](C(=O)N[C@@H](CCC(N)=O)C(=O)N[C@@H](CCCNC(=N)N)C(=O)N[C@@H](CCCCN=[N+]=[N-])C(=O)N[C@@H](Cc1c[nH]cn1)C(=O)N[C@@H](CC(C)C)C(=O)N[C@@H](CCCNC(=N)N)C(=O)N[C@@H](CCC(N)=O)C(=O)N[C@@H](Cc1ccc(O)cc1)C(=O)N[C@@H](CCC(=O)O)C(=O)N[C@@H](CC(C)C)C(=O)N[C@@H](CC(C)C)C(=O)O)[C@@H](C)CC
- Shift (averaged) [4]: 4
- IC50 (nM) of isoproterenol, [3H]-DHA RLA, peptidomimetic present [8]: 211 nM
- Shift [8]: 4

Binder: H-FNDCRD[Pra′]IQR[Azk]HLRQYELL-OH (triazole 7-11) [compound 10]
- Shift (averaged) [4]: 7
- IC50 (nM) of isoproterenol, [3H]-DHA RLA, peptidomimetic present [8]: 122 nM
- Shift [8]: 7

B4: compound 26 (peptide)
peptide: Ac-FN[S5]CRD[S5]IQRMHLRQYELL-OH
modifications: staple 3-7
SMILES: CC[C@H](C)[C@H](NC(=O)[C@]1(C)CCCC=CCCC[C@](C)(NC(=O)[C@H](CC(N)=O)NC(=O)[C@H](Cc2ccccc2)NC(C)=O)C(=O)N[C@@H](CS)C(=O)N[C@@H](CCCNC(=N)N)C(=O)N[C@@H](CC(=O)O)C(=O)N1)C(=O)N[C@@H](CCC(N)=O)C(=O)N[C@@H](CCCNC(=N)N)C(=O)N[C@@H](CCSC)C(=O)N[C@@H](Cc1c[nH]cn1)C(=O)N[C@@H](CC(C)C)C(=O)N[C@@H](CCCNC(=N)N)C(=O)N[C@@H](CCC(N)=O)C(=O)N[C@@H](Cc1ccc(O)cc1)C(=O)N[C@@H](CCC(=O)O)C(=O)N[C@@H](CC(C)C)C(=O)N[C@@H](CC(C)C)C(=O)O
- IC50 (nM) of isoproterenol, [3H]-DHA RLA, peptidomimetic present [6]: 305 nM
- Shift [6]: 2
- Shift (averaged) [4]: 2

B5: compound 4 (peptide)
peptide: FNDCRDEIQRKHLRQYELL
HELM: PEPTIDE1{F.N.D.C.R.D.E.I.Q.R.K.H.L.R.Q.Y.E.L.L}$PEPTIDE1,PEPTIDE1,7:R3-11:R3$$$V2.0
SMILES: CC[C@H](C)[C@@H]1NC(=O)[C@@H](NC(=O)[C@H](CC(=O)O)NC(=O)[C@H](CCCNC(=N)N)NC(=O)[C@H](CS)NC(=O)[C@H](CC(=O)O)NC(=O)[C@H](CC(N)=O)NC(=O)[C@@H](N)Cc2ccccc2)CCC(=O)NCCCC[C@@H](C(=O)N[C@@H](Cc2c[nH]cn2)C(=O)N[C@@H](CC(C)C)C(=O)N[C@@H](CCCNC(=N)N)C(=O)N[C@@H](CCC(N)=O)C(=O)N[C@@H](Cc2ccc(O)cc2)C(=O)N[C@@H](CCC(=O)O)C(=O)N[C@@H](CC(C)C)C(=O)N[C@@H](CC(C)C)C(=O)O)NC(=O)[C@H](CCCNC(=N)N)NC(=O)[C@H](CCC(N)=O)NC1=O
- IC50 (nM) of isoproterenol, [3H]-DHA RLA, peptidomimetic present [3]: 202 nM
- Shift [3]: 4
- Shift (averaged) [4]: 4

Binder: Ac-NARRIFNDCRDIIQRMHLRQYELL-OH [compound 72]
- IC50 (nM) of isoproterenol, [3H]-DHA RLA, peptidomimetic present [1]: 22.2 nM
- Shift [1]: 46
- Shift (averaged) [2]: 47

Binder: Ac-FN[S5]CRD[S5]IQRMHLRQYELL-OH (bridges not given here) [compound 25]
- IC50 (nM) of isoproterenol, [3H]-DHA RLA, peptidomimetic present [6]: 485 nM
- Shift [6]: 1
- Shift (averaged) [4]: 2

Binder: Ac-FNECRDKIQRMHLRQYELL-OH [compound 23]
- IC50 (nM) of isoproterenol, [3H]-DHA RLA, peptidomimetic present [6]: 270 nM
- Shift (averaged) [4]: 3

B6: compound 7 (peptide)
peptide: H-FNDCRD[S5]IQR[S5]HLRQYELL-OH
modifications: staple 7-11
SMILES: CC[C@H](C)[C@@H]1NC(=O)[C@@](C)(NC(=O)[C@H](CC(=O)O)NC(=O)[C@H](CCCNC(=N)N)NC(=O)[C@H](CS)NC(=O)[C@H](CC(=O)O)NC(=O)[C@H](CC(N)=O)NC(=O)[C@@H](N)Cc2ccccc2)CCCC=CCCC[C@@](C)(C(=O)N[C@@H](Cc2c[nH]cn2)C(=O)N[C@@H](CC(C)C)C(=O)N[C@@H](CCCNC(=N)N)C(=O)N[C@@H](CCC(N)=O)C(=O)N[C@@H](Cc2ccc(O)cc2)C(=O)N[C@@H](CCC(=O)O)C(=O)N[C@@H](CC(C)C)C(=O)N[C@@H](CC(C)C)C(=O)O)NC(=O)[C@H](CCCNC(=N)N)NC(=O)[C@H](CCC(N)=O)NC1=O
- IC50 (nM) of isoproterenol, [3H]-DHA RLA, peptidomimetic present [7]: 417 nM
- Shift [7]: 2
- Shift (averaged) [4]: 2

B7: compound 84 (peptide)
peptide: FNDCRDIIQRMHLRQYELX
HELM: PEPTIDE1{[ac].F.N.D.C.R.D.I.I.Q.R.M.H.L.R.Q.Y.E.L.[Cha]}$$$$V2.0
SMILES: CC[C@H](C)[C@H](NC(=O)[C@H](CC(=O)O)NC(=O)[C@H](CCCNC(=N)N)NC(=O)[C@H](CS)NC(=O)[C@H](CC(=O)O)NC(=O)[C@H](CC(N)=O)NC(=O)[C@H](Cc1ccccc1)NC(C)=O)C(=O)N[C@H](C(=O)N[C@@H](CCC(N)=O)C(=O)N[C@@H](CCCNC(=N)N)C(=O)N[C@@H](CCSC)C(=O)N[C@@H](Cc1c[nH]cn1)C(=O)N[C@@H](CC(C)C)C(=O)N[C@@H](CCCNC(=N)N)C(=O)N[C@@H](CCC(N)=O)C(=O)N[C@@H](Cc1ccc(O)cc1)C(=O)N[C@@H](CCC(=O)O)C(=O)N[C@@H](CC(C)C)C(=O)N[C@@H](CC1CCCCC1)C(=O)O)[C@@H](C)CC
- IC50 (nM) of isoproterenol, [3H]-DHA RLA, peptidomimetic present [9]: 66.2 nM
- Shift [9]: 12
- Shift (averaged) [2]: 12

B8: compound 67 (peptide)
peptide: RDIIQRMHLRQYEXL
HELM: PEPTIDE1{[ac].R.D.I.I.Q.R.M.H.L.R.Q.Y.E.[Cha].L}$$$$V2.0
SMILES: CC[C@H](C)[C@H](NC(=O)[C@H](CC(=O)O)NC(=O)[C@H](CCCNC(=N)N)NC(C)=O)C(=O)N[C@H](C(=O)N[C@@H](CCC(N)=O)C(=O)N[C@@H](CCCNC(=N)N)C(=O)N[C@@H](CCSC)C(=O)N[C@@H](Cc1c[nH]cn1)C(=O)N[C@@H](CC(C)C)C(=O)N[C@@H](CCCNC(=N)N)C(=O)N[C@@H](CCC(N)=O)C(=O)N[C@@H](Cc1ccc(O)cc1)C(=O)N[C@@H](CCC(=O)O)C(=O)N[C@@H](CC1CCCCC1)C(=O)N[C@@H](CC(C)C)C(=O)O)[C@@H](C)CC
- Shift (averaged) [2]: 30
- IC50 (nM) of isoproterenol, [3H]-DHA RLA, peptidomimetic present [5]: 45.4 nM
- Shift [5]: 17

Binder: Ac-FNDCRDEIQRKHLRQYELL-OH (lactam 7-11) [compound 5]
- IC50 (nM) of isoproterenol, [3H]-DHA RLA, peptidomimetic present [3]: 197 nM
- Shift [3]: 4
- Shift (averaged) [4]: 4

Binder: Ac-FNDCRD[S5]IQR[S5]HLRQYELL-OH (staple 7-11) [compound 8]
- IC50 (nM) of isoproterenol, [3H]-DHA RLA, peptidomimetic present [7]: 373 nM
- Shift [7]: 2
- Shift (averaged) [4]: 3
